Values joined by “and” are separate entries in the source; they are usually repeats but may differ in a detail not shown here. Equal values may be shown once. Read-outs that look alike come from different tables or passages of the source. Ends that are not written are not given here.
B1: peptide LWO2 (second cytoplasmic loop of long-wavelength-sensitive opsin of European robin) (peptide)
peptide: CGAGAWERWFVVCKPFGNIKFDGK-NH2
modifications: cysteine pairing not given here
B2: dansylated peptide LWO2 (peptide)
peptide: CGAGAWERWFVVCKPFGNIKFDGK-NH2
modifications: cysteine pairing not given here; also: dansyl coupled to free amino groups

Assays:
[1] = molecular target: Gtα/Giα with a C-terminus truncated by six amino acids (European robin (Erithacus rubecula)); assay: SPR; Gt-3AA or Gt-6AA immobilised on CM5 (3.1–4.2 ng/mm^2); LWO2 injected at 120 nM (Gt-3AA) or 100 nM (Gt-6AA); global fit, Langmuir 1:1 model; apparent KD; three sets each
[2] = molecular target: Gtα/Giα with a C-terminus truncated by three amino acids (European robin (Erithacus rubecula)); assay: as above
[3] = molecular target: Gtα/Giα chimera (α-subunit of the cone specific heterotrimeric G protein of European robin, chimera with Giα) (European robin (Erithacus rubecula)); assay: SPR; kinetics: Gtα/Giα immobilised on CM5 (2.6–3.4 ng/mm^2); LWO2 injected at 5 to 150 nM in random order; global fit, Langmuir 1:1 model; apparent KD from kd/ka; 12 sets; same running buffer
[4] = molecular target: Gtα/Giα with a C-terminus truncated by six amino acids (European robin (Erithacus rubecula)); assay: SPR; Gt-3AA or Gt-6AA immobilised on CM5 (3.1–4.2 ng/mm^2); LWO2 injected at 120 nM (Gt-3AA) or 100 nM (Gt-6AA); global fit, Langmuir 1:1 model; apparent KD; three sets each; remark: listed apart in the source
[5] = molecular target: Gtα/Giα with a C-terminus truncated by three amino acids (European robin (Erithacus rubecula)); assay: as above; remark: listed apart in the source
[6] = molecular target: Gtα/Giα chimera (α-subunit of the cone specific heterotrimeric G protein of European robin, chimera with Giα) (European robin (Erithacus rubecula)); assay: FRET or BRET; in solution: intrinsic Trp (excitation 280 nm) to dansyl on the peptide, emission 400–550 nm; peptide and Gtα/Giα each 16.7 μM; 80 mM Hepes pH 7.4, 40 mM KCl, 150 mM NaCl, 10 mM MgCl2, 10 μM GDP; 30 min on ice

Binder	Kd [1]	Kd [2]	Kd [3]	koff [3]	kon [3]	Kd [4]	koff [4]	kon [4]	Kd [5]	koff [5]	kon [5]	decrease of dansyl fluorescence emission (FRET) on adding Gtα/Giα (relative fluorescence counts) [6]
B1	34.5 nM	7.3 nM	15.1 nM and 21.4 nM and 3 to 41 nM	0.000812 s⁻¹	53600 M⁻¹ s⁻¹	50 nM	0.00093 s⁻¹	18600 M⁻¹ s⁻¹	8.7 nM	0.000937 s⁻¹	108000 M⁻¹ s⁻¹	
B2												14000
